Experimental data as given in patent US20250075002A1.
Blank lines part the entries; values can stand above or below the binder they belong to.

How the values were obtained:
[1] = molecular target: Cyno MUC1 (full length), on cells (cyno); test: flow cytometry on HEK293/cyno MUC1 cells
[2] = molecular target: MUC1 as expressed on normal activated human T cells (human) (UniProt P15941); test: FACS, PHA-L-activated human PBMC, live αβTCR+ gate, Donor 191180405C; antibody 10 µg/mL by paragraph 182
[3] = molecular target: MUC1 as expressed on normal activated human T cells (human) (UniProt P15941); test: FACS, PHA-L-activated human PBMC, live αβTCR+ gate, Donor 190980805C; antibody 10 µg/mL by paragraph 182

Cyno MUC1 (full length), on cells (cyno), sequence (chain, as listed by the source limits assumed, form in doubt): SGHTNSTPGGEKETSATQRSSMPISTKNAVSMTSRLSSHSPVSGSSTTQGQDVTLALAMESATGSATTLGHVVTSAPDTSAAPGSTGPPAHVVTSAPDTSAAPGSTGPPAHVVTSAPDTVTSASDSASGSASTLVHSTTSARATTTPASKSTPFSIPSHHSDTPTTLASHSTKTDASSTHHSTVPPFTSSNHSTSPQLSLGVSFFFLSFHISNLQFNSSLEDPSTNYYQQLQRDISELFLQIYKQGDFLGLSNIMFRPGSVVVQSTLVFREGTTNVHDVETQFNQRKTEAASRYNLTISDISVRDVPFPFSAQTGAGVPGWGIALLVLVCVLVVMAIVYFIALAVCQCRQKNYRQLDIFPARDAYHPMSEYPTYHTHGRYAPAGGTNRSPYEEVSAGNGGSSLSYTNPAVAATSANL
MUC1 as expressed on normal activated human T cells (human), sequence (P15941 24-1255): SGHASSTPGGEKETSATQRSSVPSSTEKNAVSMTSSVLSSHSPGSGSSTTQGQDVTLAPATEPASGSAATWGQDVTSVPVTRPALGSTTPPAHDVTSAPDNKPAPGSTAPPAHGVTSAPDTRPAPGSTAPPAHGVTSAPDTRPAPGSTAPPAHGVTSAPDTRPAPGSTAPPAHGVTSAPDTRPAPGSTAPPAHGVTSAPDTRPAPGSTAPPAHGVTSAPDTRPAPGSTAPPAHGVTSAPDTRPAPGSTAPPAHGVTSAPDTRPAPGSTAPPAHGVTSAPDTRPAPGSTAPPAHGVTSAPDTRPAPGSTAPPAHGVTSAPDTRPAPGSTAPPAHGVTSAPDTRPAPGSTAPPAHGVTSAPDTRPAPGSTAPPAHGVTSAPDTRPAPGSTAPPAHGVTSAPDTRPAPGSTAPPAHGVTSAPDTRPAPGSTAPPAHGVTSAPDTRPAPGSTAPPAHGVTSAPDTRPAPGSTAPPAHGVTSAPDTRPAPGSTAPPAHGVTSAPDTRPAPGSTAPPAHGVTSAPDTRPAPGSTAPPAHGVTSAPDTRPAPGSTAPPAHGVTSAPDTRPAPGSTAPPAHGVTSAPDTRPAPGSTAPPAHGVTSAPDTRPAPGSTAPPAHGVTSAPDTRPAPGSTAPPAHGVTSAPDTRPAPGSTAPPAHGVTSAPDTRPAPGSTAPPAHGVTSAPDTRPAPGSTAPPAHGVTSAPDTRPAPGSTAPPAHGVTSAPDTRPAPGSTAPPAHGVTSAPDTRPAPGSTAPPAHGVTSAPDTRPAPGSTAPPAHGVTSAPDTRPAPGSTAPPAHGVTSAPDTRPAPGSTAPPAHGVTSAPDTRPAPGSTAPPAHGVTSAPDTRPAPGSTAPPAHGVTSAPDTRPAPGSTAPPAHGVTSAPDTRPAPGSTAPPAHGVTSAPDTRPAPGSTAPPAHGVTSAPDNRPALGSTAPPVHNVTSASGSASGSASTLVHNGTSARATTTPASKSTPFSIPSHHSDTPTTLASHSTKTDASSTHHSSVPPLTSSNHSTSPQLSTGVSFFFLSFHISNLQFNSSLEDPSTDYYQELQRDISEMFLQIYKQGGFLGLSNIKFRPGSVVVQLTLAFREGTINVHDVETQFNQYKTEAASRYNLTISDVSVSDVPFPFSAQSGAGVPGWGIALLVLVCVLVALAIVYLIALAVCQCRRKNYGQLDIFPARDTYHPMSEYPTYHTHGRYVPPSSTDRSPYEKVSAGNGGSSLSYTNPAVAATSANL

EC50 [1]: 7.55 nM
B2: chBG138P (antibody, V domains shown)
VH: QVQLLQSGAELARPGASVKMSCKASGYTFTTYTMHWIKQRPGQGLEWIGYINPGSDYTHYNQKFKDKATLTADKSSSTAYMHLYSLTSEDSAVYYCARQGNYAAYYFDYWGQGTTLTVSS
VL: DIQMTQSPASLSASVGETVTITCRASGNIHNFLVWYQQKQGKSPQLLVYNAKTLTDGVPSRFSGSGSGTQYSLKIKSLQPEDFGTYYCQNFWNVPFTFGSGTKLEIK

percent of αβTCR+ cells in the MUC1-positive gate (dashed box) [2]: 2.3%
percent of αβTCR+ cells in the MUC1-positive gate (dashed box) [3]: 2.4%
B4: huBG138P-Hz4 (antibody, from another filing, V domains shown)
VH: QVQLVQSGAEVKKPGASVKVSCKASGYTFTTYTMHWVRQAPGQGLEWMGYINPGSDYTHYNQKFKDRVTITADKSASTAYMELSSLRSEDTAVYYCARQGNYAAYYFDYWGQGTLVTVSS
VL: DIQMTQSPSSLSASVGDRVTITCRASGNIHNFLVWYQQKPGKSPKLLIYNAKTLTSGVPSRFSGSGSGTQYTLTISSLQPEDVATYYCQNFWNVPFTFGQGTKLEIK

More lines, now with the values behind:

B1: chBG346P (antibody, V domains shown)
VH: EVQLQQSGAELVKPGASVKISCKASGYTFTNYWMNWVRQRPGQGLEWIGEIDPSDSYTNNNQKFKDKATLTVDKSSSTAYMQLSSLTSEDSAVYYCARGRRTGFAYWGQGTLVTVSS
VL: DIQMTQSPASLSVSVGETVTITCRASENIYSNLAWYQKKQGKSPQLLVYAATNLADGVPSRFSGSGSGTQYSLKINSLQSEDFGNYYCQHFWGTPYTFGGGTKLEIK
EC50 [1]: 41.8 nM

B3: chBG219P (antibody, V domains shown)
VH: EVQLVESGGGLVKPGGSLKLSCAASGFTFNDYIMSWVRQTPEKRLEWVATVSSGGDNTYYPDSVKGRFTISRDNAKNNLYLQMSSLRSEDTALYYCTRYGGLGAMDYWGQGTSVTVSS
VL: DIVMTQSPASLSASVGETVTITCRASGNIHNYLTWYQQKQGKSPQLLVYNAKTLADGVPSRFSGSGSGPQYSLKINSLQPEDFGSYYCQHFWSVPYTFGGGTRLEIK
EC50 [1]: 12.7 nM
